# Article PMC2563037
# Non-standard residues stand in square brackets, D forms with d. No end group written: not given here. Abu = CC[C@H](N)C(=O)O
# Biological target: H-2K^b (MHC class I heavy chain with its light chain, the 'heterodimer' of the crystal structures) (mouse | not stated)
# Experiment: circular dichroism thermal melt; far-UV CD of the H-2K^b/peptide-Aba complexes, thermostatted cuvette, 30 to 90°C
row,Binder,Tm of the complex
1,R[Abu]QIFANI,54 °C
2,R[Abu]YIFANI,64 °C
